Results as given in patent publication US20070254316A1 (Johns Hopkins, published 2007).
Ends that are not written are not given here.

B1: SEQ ID NO 107 phage (M13 phage displaying CTPQSSDRC) (peptide)
chain: CTPQSSDRC
modifications: not fully specified (bridges); cysteine pairing not given here; also: displayed on M13 phage pIII coat protein
notes: Tested as whole phage; not shown: pIII coat protein of M13 filamentous bacteriophage (New England Biolabs CX7C library); junction between peptide and pIII
B2: R3-A4 phage (M13 phage displaying CFPQSSARC) (peptide)
chain: CFPQSSARC
modifications: not fully specified (bridges); cysteine pairing not given here; also: displayed on M13 phage pIII coat protein
notes: Disulfide-constrained heptapeptide flanked by cysteines, tested as whole phage; not shown: pIII coat protein of M13 filamentous bacteriophage (New England Biolabs CX7C library); junction between peptide and pIII
B3: SEQ ID NO 9 phage (M13 phage displaying CPSVNTKQC) (peptide)
chain: CPSVNTKQC
modifications: not fully specified (bridges); cysteine pairing not given here; also: displayed on M13 phage pIII coat protein
notes: Tested as whole phage; also called R5-C11; not shown: pIII coat protein of M13 filamentous bacteriophage (New England Biolabs CX7C library); junction between peptide and pIII
B4: R5-XC1 phage (M13 phage displaying CQKHHNYLC) (peptide)
chain: CQKHHNYLC
modifications: not fully specified (bridges); cysteine pairing not given here; also: displayed on M13 phage pIII coat protein
notes: as for B2
B5: SEQ ID NO 28 phage (M13 phage displaying CLSSNSSLC) (peptide)
chain: CLSSNSSLC
modifications: not fully specified (bridges); cysteine pairing not given here; also: displayed on M13 phage pIII coat protein
notes: Tested as whole phage; also called R3-C1; not shown: pIII coat protein of M13 filamentous bacteriophage (New England Biolabs CX7C library); junction between peptide and pIII
B6: SEQ ID NO 106 phage (M13 phage displaying CQVRHSAQC) (peptide)
chain: CQVRHSAQC
modifications: not fully specified (bridges); cysteine pairing not given here; also: displayed on M13 phage pIII coat protein
notes: as for B1
B7: R5-C6 phage (M13 phage displaying CTITSKRTC) (peptide)
chain: CTITSKRTC
modifications: not fully specified (bridges); cysteine pairing not given here; also: displayed on M13 phage pIII coat protein
notes: as for B2

How the values were obtained:
[1] = target: T1, xPSM (extracellular portion of human PSMA, Tag-xPSM digested with enterokinase, no affinity tags) (human, UniProt Q04609 44-750); assay: phage ELISA on xPSM
T1 construct: extracellular domain; also called purified xPSM; soluble xPSM protein

[2] = target: T2, Tag-xPSM fusion target protein (human, UniProt Q04609 44-750); assay: phage ELISA; R3-A4 stands only in FIG. 5, where Tag-xPSM was immobilised
T2 construct: extracellular domain; they are put first here only as a guess from the type II topology; Made in Sf-9 cells; also called PSMA fusion protein
Excerpt: (§1) FIG. 5 depicts the binding of selected phage clones to purified extracellular PSMA. Tag-xPSM was immobilized on microtiter plates and targeted for binding with 10¹⁰ PFU of each individual phage. Bound phages were quantified by ELISA absorbance at 410 nm. R4-C9, R5-XC1, and R3-A4 bound with the following significance compared to insertless phage: p-value=0.005, 0.009, and 0.0001 respectively). Phage clones contained peptide sequences as follows: R5-C6: SEQ ID NO:2; R4-C9: SEQ ID NO:5; R5-XC1: SEQ ID NO:1; R3-A4: SEQ ID NO:95.
(§2) Target proteins were immobilized on 96 well tissue culture plates by incubation for 1-2 hours at room temperature or overnight at four degrees Celsius. Both phage and protein coated plate were blocked for 30 minutes with RPMI 1640+1% Bovine Serum Albumin (BSA) at room temperature. Phage were incubated with target in RPMI 1640+1% BSA for 1 hour at room temperature, wells were washed five times in PBS+0.05% Tween-20, and wells were incubated with 1:5000 HRP/anti-M13 monoclonal antibody (in PBS) for 1 hour. Wells were again washed five times in PBS+0.05% Tween-20, and signal detected by incubation in 1×ABTS Stock Solution (100 mg ABTS in 450 ml of 0.05 M Citric Acid, pH 4.0) and absorbance reading at 410 nm. […] Significance was calculated by two-tailed, two-sample equal variance test.

PSMA on LNCaP cells = target: T3, PSMA on LNCaP cells (human, UniProt Q04609 1-750); assay: phage binding to LNCaP cells, 10^8 PFU, BRASIL partitioning and titer
T3 construct: whole, on cells; Target is whole LNCaP cells; also called PSMA expressing LNCaP cells
Experimental: FIG. 6 depicts the binding of individual phage clones to PSMA expressing LNCaP cells. 1.3×10⁵ harvested LNCaP cells were incubated with 10⁸ PFU of each individual phage for 20 minutes. Cell-bound phage were isolated by BRASIL partitioning and titered. Phage clones contained peptide sequences as follows: R5-C6: SEQ ID NO:2; R4-C9: SEQ ID NO:5; R5-XC1: SEQ ID NO:1; R3-A4: SEQ ID NO:95.
(§3) Cell monolayers were washed several times in PBS, and finally incubated five minutes in PBS at 37° C. Cells were knocked free, pelleted, and suspended in RPMI 1640+1% FBS at a concentration of 10⁶ cells per milliliter. 10⁸ PFU from each clone were incubated with 100 μl of cells at 37° C. for 20 minutes while rotating. For competitive inhibition, purified xPSM or BSA were added to the cells along with phage, and a larger concentration of 10¹⁰ PFU was applied. The cells were then centrifuged through 200 μl of 9:1 dibutyl phthalate:cyclohexane, previously described as BRASIL portioning (Giordano, R. J. et al. (2001) Nat. Med. 7:1249-1253, incorporated herein by reference). The tube was then snap frozen in liquid nitrogen to isolate the cell pellet. The cell pellets were then resuspended in 200 μl of log phage ER2738 cells and phage allowed to infect 1 hour at room temperature. A small aliquot was taken to determine the number of phage bound by dilution titer.

[3] = target: T1, xPSM (extracellular portion of human …); assay: competition: 380 nM soluble PSMA (xPSM) against LNCaP cells for R5-XC1 phage, 500 nM BSA as control
Experimental: FIG. 7 depicts the specific blocking of LNCaP phage binding by soluble xPSM protein. 10¹⁰ R5-XC1 phage or the round one phage pool were allowed to bind LNCaP cells in the presence of 380 nM PSMA or 500 nM BSA.
as §3

[4] = target: T2, Tag-xPSM fusion target protein; assay: phage ELISA, Tag-xPSM immobilised on microtiter plates, 10^10 PFU, absorbance at 410 nm
Excerpt: as §1, §2

T1 sequence (Q04609 44-750): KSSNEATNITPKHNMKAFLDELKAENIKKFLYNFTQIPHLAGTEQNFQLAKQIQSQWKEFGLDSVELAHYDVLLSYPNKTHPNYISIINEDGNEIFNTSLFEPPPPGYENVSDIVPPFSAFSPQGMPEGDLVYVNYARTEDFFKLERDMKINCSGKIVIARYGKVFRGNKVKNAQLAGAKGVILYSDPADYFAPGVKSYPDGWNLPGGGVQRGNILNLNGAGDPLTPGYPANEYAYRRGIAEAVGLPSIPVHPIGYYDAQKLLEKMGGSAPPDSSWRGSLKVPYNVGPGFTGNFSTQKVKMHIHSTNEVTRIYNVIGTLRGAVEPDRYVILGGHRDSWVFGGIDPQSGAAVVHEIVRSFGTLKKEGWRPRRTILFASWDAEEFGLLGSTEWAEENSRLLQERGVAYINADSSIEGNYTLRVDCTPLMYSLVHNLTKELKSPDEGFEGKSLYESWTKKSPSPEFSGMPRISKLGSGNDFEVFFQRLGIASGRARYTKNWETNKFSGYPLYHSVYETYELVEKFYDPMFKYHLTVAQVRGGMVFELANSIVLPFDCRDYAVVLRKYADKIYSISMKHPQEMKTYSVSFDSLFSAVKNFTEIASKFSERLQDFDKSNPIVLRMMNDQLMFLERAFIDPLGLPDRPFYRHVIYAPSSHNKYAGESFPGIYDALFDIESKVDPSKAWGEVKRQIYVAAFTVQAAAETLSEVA
T3 sequence (Q04609 whole entry): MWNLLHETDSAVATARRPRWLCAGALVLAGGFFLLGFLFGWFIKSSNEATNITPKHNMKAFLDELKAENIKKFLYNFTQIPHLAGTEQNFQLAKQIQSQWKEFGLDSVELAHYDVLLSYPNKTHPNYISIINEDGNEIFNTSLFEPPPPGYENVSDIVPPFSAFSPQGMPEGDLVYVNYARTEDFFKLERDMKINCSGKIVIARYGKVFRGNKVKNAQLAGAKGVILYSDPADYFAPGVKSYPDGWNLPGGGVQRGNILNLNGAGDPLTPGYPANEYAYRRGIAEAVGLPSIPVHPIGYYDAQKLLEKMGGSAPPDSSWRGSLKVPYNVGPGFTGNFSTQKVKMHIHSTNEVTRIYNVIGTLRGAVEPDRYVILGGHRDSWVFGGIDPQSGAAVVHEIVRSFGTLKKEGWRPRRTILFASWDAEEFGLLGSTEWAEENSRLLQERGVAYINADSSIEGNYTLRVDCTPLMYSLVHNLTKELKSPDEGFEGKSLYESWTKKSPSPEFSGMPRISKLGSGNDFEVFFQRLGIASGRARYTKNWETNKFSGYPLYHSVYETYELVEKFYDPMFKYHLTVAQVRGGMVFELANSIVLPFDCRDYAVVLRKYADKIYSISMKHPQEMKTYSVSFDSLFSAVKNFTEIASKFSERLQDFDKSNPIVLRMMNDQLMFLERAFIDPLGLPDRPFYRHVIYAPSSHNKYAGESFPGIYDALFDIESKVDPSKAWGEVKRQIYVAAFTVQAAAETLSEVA
T2 sequence (Q04609 44-750): as the sequence (Q04609 44-750) above

Row | Binder | binding result [1] | binding result (PSMA on LNCaP cells) | further results
1 | B1 | binds | – | –
2 | B2 | – | binds | binding result [2]: binds
3 | B3 | binds | – | –
4 | B4 | – | binds | binding result [3]: binds; binding result [4]: binds
5 | B5 | binds | – | –
6 | B6 | binds | – | –
7 | B7 | binds | binds | –
